1 molecule from article PMC7221550, “Membrane Phospholipids and Polyphosphates as Cofactors and Binding Molecules of SERPINA12 (vaspin)” (Molecules, 2020) can be followed below.

The target in the experiment is Recombinant human kallikrein 7 (KLK7) (human, UniProt P49862 30-253). The experiment in a line: cell-based or functional assay.
Chain of Recombinant human kallikrein 7 (KLK7) (P49862 30-253): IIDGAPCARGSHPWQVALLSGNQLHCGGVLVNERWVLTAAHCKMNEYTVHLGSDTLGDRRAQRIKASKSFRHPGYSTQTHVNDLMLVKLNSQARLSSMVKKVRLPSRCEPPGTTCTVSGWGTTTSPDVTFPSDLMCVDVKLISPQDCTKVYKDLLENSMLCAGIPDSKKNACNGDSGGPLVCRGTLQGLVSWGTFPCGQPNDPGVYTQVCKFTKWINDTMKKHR

B1: Recombinant human vaspin wild type (visceral adipose tissue derived serine protease inhibitor, SERPINA12) (natural protein)
chain: KPSFSPRNYKALSEVQGWKQRMAAKELARQNMDLGFKLLKKLAFYNPGRNIFLSPLSISTAFSMLCLGAQDSTLDEIKQGFNFRKMPEKDLHEGFHYIIHELTQKTQDLKLSIGNTLFIDQRLQPQRKFLEDAKNFYSAETILTNFQNLEMAQKQINDFISQKTHGKINNLIENIDPGTVMLLANYIFFRARWKHEFDPNVTKEEDFFLEKNSSVKVPMMFRSGIYQVGYDDKLSCTILEIPYQKNITAIFILPDEGKLKHLEKGLQVDTFSRWKTLLSRRVVDVSVPRLHMTGTFDLKKTLSYIGVSKIFEEHGDLTKIAPHRSLKVGEAVHKAELKMDERGTEGAAGTGAQTLPMETPLVVKIDKPYLLLIYSEKIPSVLFLGKIVNPIGK
Regarding B1, the “second-order rate constant of KLK7 inhibition by vaspin under pseudo-first-order conditions, x-fold over control, with polyP45 (polyP/serpin ratio of 10:1)” value was 5 fold and the “second-order rate constant of KLK7 inhibition by vaspin under pseudo-first-order conditions, x-fold over control, with unfractionated heparin (ligand/serpin ratio of 10)” value turned out to be 5 fold.
